Laboratory results published in PMC9082959, “Mechanism of Assembly of the Non-Covalent Spectrin Tetramerization Domain from Intrinsically Disordered Partners” (Journal of molecular biology, 2013).

Key:
Conditions in all cases: both partners purified
β16β17 K46G = target: T1, β16β17 K46G (human, UniProt P11277 1898-2083, K2049G); experiment: ITC; β16β17 at 25–50 μM in the cell titrated with 15–20 injections to 2–2.5 eq of α0α1; one-site binding model; PBS (50 mM sodium phosphate, 150 mM NaCl, pH 7.04), 25 °C; mutants only against the wild-type partner
T1 construct: erythrocyte β-spectrin, human, residues 1898-2083 (β16β17); mutant of m2; also called K2049G; source: E. coli C41(DE3), purified (Ni2+ agarose, thrombin cleavage, gel filtration)
T1 sequence (looked up): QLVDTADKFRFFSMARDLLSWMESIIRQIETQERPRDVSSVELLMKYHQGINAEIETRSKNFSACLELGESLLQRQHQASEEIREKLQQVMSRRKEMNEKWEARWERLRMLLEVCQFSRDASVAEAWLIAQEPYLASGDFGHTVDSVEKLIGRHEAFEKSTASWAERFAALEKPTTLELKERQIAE

β16β17 S16A = target: T2, β16β17 S16A (human, UniProt P11277 1898-2083, S2019A); experiment: as above
T2 construct: erythrocyte β-spectrin, human, residues 1898-2083 (β16β17); mutant of m2; also called S2019A; source: E. coli C41(DE3), purified (Ni2+ agarose, thrombin cleavage, gel filtration)
T2 sequence (looked up): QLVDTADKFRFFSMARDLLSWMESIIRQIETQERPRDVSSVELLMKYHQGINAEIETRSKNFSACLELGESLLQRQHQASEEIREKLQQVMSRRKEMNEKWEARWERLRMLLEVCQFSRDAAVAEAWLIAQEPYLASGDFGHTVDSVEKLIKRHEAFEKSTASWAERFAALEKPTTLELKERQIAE

β16β17 K53A = target: T3, β16β17 K53A (human, UniProt P11277 1898-2083, K2056A); experiment: as above
T3 construct: erythrocyte β-spectrin, human, residues 1898-2083 (β16β17); mutant of m2; also called K2056A; source: E. coli C41(DE3), purified (Ni2+ agarose, thrombin cleavage, gel filtration)
T3 sequence (looked up): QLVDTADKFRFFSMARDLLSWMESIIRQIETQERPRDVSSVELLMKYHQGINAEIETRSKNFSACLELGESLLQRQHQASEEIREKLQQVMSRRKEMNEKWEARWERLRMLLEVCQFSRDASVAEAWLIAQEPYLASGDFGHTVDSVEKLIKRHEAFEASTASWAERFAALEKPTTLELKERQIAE

β16β17 K46A = target: T4, β16β17 K46A (human, UniProt P11277 1898-2083, K2049A); experiment: as above
T4 construct: erythrocyte β-spectrin, human, residues 1898-2083 (β16β17); mutant of m2; also called K2049A; source: E. coli C41(DE3), purified (Ni2+ agarose, thrombin cleavage, gel filtration)
T4 sequence (looked up): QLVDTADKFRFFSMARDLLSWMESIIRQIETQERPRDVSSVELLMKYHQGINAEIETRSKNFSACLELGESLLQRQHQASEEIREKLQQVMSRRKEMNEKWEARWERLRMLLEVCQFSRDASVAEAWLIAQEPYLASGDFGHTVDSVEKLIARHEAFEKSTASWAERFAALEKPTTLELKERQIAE

β16β17 A20G = target: T5, β16β17 A20G (human, UniProt P11277 1898-2083, A2023G); experiment: as above
T5 construct: erythrocyte β-spectrin, human, residues 1898-2083 (β16β17); mutant of m2; also called A2023G; source: E. coli C41(DE3), purified (Ni2+ agarose, thrombin cleavage, gel filtration)
T5 sequence (looked up): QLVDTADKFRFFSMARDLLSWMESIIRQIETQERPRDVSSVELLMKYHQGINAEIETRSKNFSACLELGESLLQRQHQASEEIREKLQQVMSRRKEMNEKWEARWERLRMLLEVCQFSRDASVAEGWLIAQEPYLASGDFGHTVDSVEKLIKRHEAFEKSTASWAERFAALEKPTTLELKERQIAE

[1] = target: T6, β16β17 (erythrocyte β-spectrin residues 1898–2083), wild type (human, UniProt P11277 1898-2083); experiment: stopped-flow intrinsic tryptophan fluorescence (dissociation/unfolding kinetics); wild type; observed rate constants for tetramer dissociation calculated from folding and unfolding experiments in urea; k− in water with mk− 1.44 M^-1; PBS, 25 °C
T6 construct: erythrocyte β-spectrin, human, residues 1898-2083 (β16 plus the incomplete 17th domain); synthetic gene (GenScript) in a modified pRSETA plasmid; source: E. coli C41(DE3), purified (Ni2+ agarose, thrombin cleavage, gel filtration)
T6 sequence (looked up): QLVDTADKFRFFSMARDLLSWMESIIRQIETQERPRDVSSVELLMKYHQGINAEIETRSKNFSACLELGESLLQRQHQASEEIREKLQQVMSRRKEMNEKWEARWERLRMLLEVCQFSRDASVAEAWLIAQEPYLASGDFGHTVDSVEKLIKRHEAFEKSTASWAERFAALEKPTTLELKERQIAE

Ka (β16β17 K46G): 230000 M⁻¹ | Ka (β16β17 S16A): 490000 M⁻¹ | Ka (β16β17 K53A): 1.5e+06 M⁻¹ | Ka (β16β17 K46A): 520000 M⁻¹ | Ka (β16β17 A20G): 530000 M⁻¹ | koff [1]: 0.00025 s⁻¹
B1: α0α1 (erythrocyte α-spectrin residues 2–163), wild type (domain or fragment, human, UniProt P02549 2-163, looked up)
chain: EQFPKETVVESSGPKVLETAEEIQERRQEVLTRYQSFKERVAERGQKLEDSYHLQVFKRDADDLGKWIMEKVNILTDKSYEDPTNIQGKYQKHQSLEAEVQTKSRLMSELEKTREERFTMGHSAHEETKAHIEELRHLWDLLLELTLEKGDQLLRALKFQQY
notes: synthetic gene (GenScript) in a modified pRSETA plasmid; also called α1α0; source: E. coli C41(DE3), purified (Ni2+ agarose, thrombin cleavage, gel filtration)
